Laboratory results from US20220153844A1 (INVENRA, published 2022).
One block for each binder: values may come before it.

How the values were obtained:
[1] = biological target: T1, huCTLA4 (biotinylated human CTLA4 for BLI) (human, UniProt P16410 36-161, limits assumed, biotinylated); assay: BLI steady state analysis; biotinylated antigen on streptavidin sensor, bispecific 2 µM to 31.25 nM
T1 construct: also called Target 2

[2] = biological target: T2, CTLA4 (antigen of Examples 10 and 13) (UniProt P16410 36-161, limits assumed); assay: BLI (Octet); antigen immobilised, B-Body as analyte
T2 construct: Immobilised antigen in the Octet assay
Source text: In each instance, the antigen is immobilized and the B-Body is the analyte.

[3] = biological target: T3, muCD25 transiently expressed on Expi293 cells (Expi293-muCD25) (mouse, UniProt P01590 22-268); assay: flow cytometry, biotinylated mouse IL-2 on Expi293 muCD25 cells, streptavidin-PE
T3 construct: whole, on cells; also called murine CD25; single positive CD25+ cells
T3 sequence (looked up): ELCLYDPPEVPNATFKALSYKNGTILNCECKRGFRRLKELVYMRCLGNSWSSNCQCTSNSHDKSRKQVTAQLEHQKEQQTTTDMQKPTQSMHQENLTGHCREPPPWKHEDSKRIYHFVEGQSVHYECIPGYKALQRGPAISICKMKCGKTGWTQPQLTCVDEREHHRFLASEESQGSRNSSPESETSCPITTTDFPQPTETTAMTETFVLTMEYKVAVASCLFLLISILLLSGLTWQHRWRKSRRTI

[4] = biological target: T4, mouse CD25 + CTLA4 together (Table 29) (mouse, UniProt P01590 22-236; P09793 36-161, limits assumed); assay: bivalent affinity to both CD25 and CTLA4, summary in Table 29; bivalent, CD25 + CTLA4 together
T4 construct: the format is not described

[5] = biological target: T5, mouse CTLA4 (target of muSNIPER and anti-muCTLA4) (mouse, UniProt P09793 36-161, limits assumed, biotinylated in the blocking assay); assay: monovalent affinity, summary in Table 29 (text: biolayer interferometry; data not shown); monovalent, CTLA4 alone
T5 construct: also called Target 2

[6] = biological target: T6, mouse CD25 (target of muSNIPER in Table 29) (mouse, UniProt P01590 22-236, limits assumed); assay: monovalent affinity, summary in Table 29 (text: biolayer interferometry; data not shown); monovalent, CD25 alone
T6 construct: also called muCD25
T6 sequence (looked up): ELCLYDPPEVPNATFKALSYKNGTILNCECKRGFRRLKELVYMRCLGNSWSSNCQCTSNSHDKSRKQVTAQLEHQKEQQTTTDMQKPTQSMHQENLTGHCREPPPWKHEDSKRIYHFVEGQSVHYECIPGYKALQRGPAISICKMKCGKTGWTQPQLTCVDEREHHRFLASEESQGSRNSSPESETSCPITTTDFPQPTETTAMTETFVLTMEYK

[7] = biological target: T5, mouse CTLA4 (target of muSNIPER and …); assay: BLI, biotinylated mouse CTLA4 (B-mTarget2) on streptavidin sensor, then antibody or CD86 ligand

T5 sequence (P09793 36-161 limits assumed): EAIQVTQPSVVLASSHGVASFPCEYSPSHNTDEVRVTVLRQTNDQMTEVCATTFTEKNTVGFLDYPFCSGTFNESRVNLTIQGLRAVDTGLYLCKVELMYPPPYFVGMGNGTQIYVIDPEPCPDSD
T2 sequence (P16410 36-161 limits assumed): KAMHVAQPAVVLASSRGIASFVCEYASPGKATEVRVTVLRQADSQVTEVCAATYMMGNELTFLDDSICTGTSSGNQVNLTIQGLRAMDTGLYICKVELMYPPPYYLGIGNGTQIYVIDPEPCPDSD
T1 sequence (P16410 36-161 limits assumed): as above
T4 sequence (P09793 36-161 limits assumed, one chain of several): as the sequence (P09793 36-161 limits assumed) above

Kd [1]: 19 nM
B1: BC1 1×1 B-Body huSNIPER 19×8 binding molecule (bispecific antibody)
chain 1: not shown
chain 2: EVQLVESGGGLVQPGGSLRLSCAASGFTFSGYWIHWVRQAPGKGLEWVAAITSRDSYTYYADSVKGRFTISADTSKNTAYLQMNSLRAEDTAVYYCARGSYLGSAFDYWGQGTLVTVSSASPREPQVYTDPPSRDELTKNQVSLTCLVKGFYPSDIAVEWESNGQPENNYKTTPPVLDSDGSFFLYSKLTVDKSRWQQGNVFSCSVMHEALHNHYTQKSLSLSGEC
chain 3: SDIQMTQSPSSLSASVGDRVTITCRASQSVSSAVAWYQQKPGKAPKLLIYSASSLYSGVPSRFSGSRSGTDFTLTISSLQPEDFATYYCQQYSSQPATFGQGTKVEIKRTVAAPSVFIFPPSDEQLKSGTASVVCLLNNFYPREAKVQWKVDNALQSGNSQESVTEQDSKDSTYSLSSTLTLSKADYEKHKVYACEVTHQGLSSPVTKSFNRGECDKTHTCPPCPAPELLGGPSVFLFPPKPKDTLMISRTPEVTCVVVDVSHEDPEVKFNWYVDGVEVHNAKTKPREEQYNSTYRVVSVLTVLHQDWLNGKEYKCKVSNKALPAPIEKTISKAKGQPREPQVCTLPPSREEMTKNQVSLSCAVKGFYPSDIAVEWESNGQPENNYKTTPPVLDSDGSFFLVSKLTVDKSRWQQGNVFSCSVMHEALHNHYTQKSLSLSPGK
chain 4: EVQLVESGGGLVQPGGSLRLSCAASGFTFSSYYIHWVRQAPGKGLEWVAKIQPKGGYTYYADSVKGRFTISADTSKNTAYLQMNSLRAEDTAVYYCARSYYYRPHAFDYWGQGTLVTVSSASTKGPSVFPLAPSSKSTSGGTAALGCLVKDYFPEPVTVSWNSGALTSGVHTFPAVLQSSGLYSLSSVVTVPSSSLGTQTYICNVNHKPSNTKVDKKVEPPKSC

binding result [2]: no binding
B2: bivalent bispecific B-Body “BC1” (bispecific antibody)
chain 1: not shown
chain 2: EVQLVESGGGLVQPGGSLRLSCAASGFTFSDYDIHWVRQAPGKGLEWVGDITPYDGTTNYADSVKGRFTISADTSKNTAYLQMNSLRAEDTAVYYCARLVGEIATGFDYWGQGTLVTVSSASPREPQVYTDPPSRDELTKNQVSLTCLVKGFYPSDIAVEWESNGQPENNYKTTPPVLDSDGSFFLYSKLTVDKSRWQQGNVFSCSVMHEALHNHYTQKSLSLSGEC
chain 3: not shown
chain 4: QVQLVESGGGVVQPGRSLRLDCKASGITFSNSGMHWVRQAPGKGLEWVAVIWYDGSKRYYADSVKGRFTISRDNSKNTLFLQMNSLRAEDTAVYYCATNDDYWGQGTLVTVSSASTKGPSVFPLAPSSKSTSGGTAALGCLVKDYFPEPVTVSWNSGALTSGVHTFPAVLQSSGLYSLSSVVTVPSSSLGTQTYICNVNHKPSNTKVDKKVEPPKSC
notes: A:F site specific for Antigen A, H:L site (nivolumab) specific for human PD1

binding result [3]: binds
B3: biotinylated mouse recombinant IL-2 ligand (ligand, UniProt P04351 21-169, looked up)
chain: APTSSSTSSSTAEAQQQQQQQQQQQQHLEQLLMDLQELLSRMENYRNLKLPRMLTFKFYLPKQATELKDLQCLEDELGPLRHVLDLTQSKSFQLEDAENFISNIRVTVVKLKGSDNTFECQFDDESATVVDFLRRWIAFCQSIISTSPQ
modifications: biotinylated

Kd [4]: < 5 nM
Kd [5]: > 100 nM
Kd [6]: > 300 nM
B4: Mouse Surrogate SNIPER antibody (muSNIPER) (bispecific antibody)
chain 1: not shown
chain 2: EVQLVESGGGLVQPGGSLRLSCAASGFTFSSYYIHWVRQAPGKGLEWVASISSYADYTDYADSVKGRFTISADTSKNTAYLQMNSLRAEDTAVYYCARQSYYGLDYWGQGTLVTVSSASPREPQVYTDPPSRDELTKNQVSLTCLVKGFYPSDIAVEWESNGQPENNYKTTPPVLDSDGSFFLYSKLTVDKSRWQQGNVFSCSVMHEALHNHYTQKSLSLSGEC
chain 3: DIQMTQSPSSLSASVGDRVTITCRASQSVSSAVAWYQQKPGKAPKLLIYSASSLYSGVPSRFSGSRSGTDFTLTISSLQPEDFATYYCQQWYTSPLTFGQGTKVEIKRTVAAPSVFIFPPSDEQLKSGTASVVCLLNNFYPREAKVQWKVDNALQSGNSQESVTEQDSKDSTYSLSSTLTLSKADYEKHKVYACEVTHQGLSSPVTKSFNRGECDKTHTCPPCPAPELLGGPSVFLFPPKPKDTLMISRTPEVTCVVVDVSHEDPEVKFNWYVDGVEVHNAKTKPREEQYNSTYRVVSVLTVLHQDWLNGKEYKCKVSNKALPAPIEKTISKAKGQPREPQVCTLPPSREEMTKNQVSLSCAVKGFYPSDIAVEWESNGQPENNYKTTPPVLDSDGSFFLVSKLTVDKSRWQQGNVFSCSVMHEALHNHYTQKSLSLSPGK
chain 4: EVQLVESGGGLVQPGGSLRLSCAASGFTFRQYFIHWVRQAPGKGLEWVAAIHPDSDFTYYADSVKGRFTISADTSKNTAYLQMNSLRAEDTAVYYCARGGVAIESGYALDYWGQGTLVTVSSASTKGPSVFPLAPSSKSTSGGTAALGCLVKDYFPEPVTVSWNSGALTSGVHTFPAVLQSSGLYSLSSVVTVPSSSLGTQTYICNVNHKPSNTKVDKKVEPPKSC
notes: Chains 1 and 2 form the CTLA4 arm, chains 3 and 4 the CD25 arm; BC1 scaffold; also called mSNIPER; muSINPER

binding result [7]: binds
B5: anti-muCTLA4, parental bivalent monospecific monoclonal antibody (antibody, IgG1, V domains shown)
VH: EVQLVESGGGLVQPGGSLRLSCAASGFTFSSYYIHWVRQAPGKGLEWVASISSYADYTDYADSVKGRFTISADTSKNTAYLQMNSLRAEDTAVYYCARQSYYGLDYWGQGTLVTVSS
VL: DIQMTQSPSSLSASVGDRVTITCRASQSVSSAVAWYQQKPGKAPKLLIYSASSLYSGVPSRFSGSRSGTDFTLTISSLQPEDFATYYCQQLSRGPSTFGQGTKVEIK
notes: Parent antibodies of the discovery campaign are in a human full-length IgG1 format; copies: 2 + 2
